According to patent publication US5817490A, “Enzymatic process for the manufacture of ascorbic acid 2-keto-L-gulonic acid and esters of 2-keto-L-gulonic acid” (Eastman Chemical Company, priority 1997, dated 1998):

Test: enzyme screen for hydrolysis/methanolysis of butyl-KLG (HPLC of products and remaining substrate)
Format: biochemical
Set-up: KLG formed / MeKLG formed / ASA formed / BuKLG (remaining substrate): unit: ppm
Method: Initial enzyme screens were carried out as follows. Enzyme (typically 10 mg), aqueous buffer (typically 860 microliters (ul) or 550 ul), aqueous 0.2M CaCl2 (10 ul), methanol (typically 90 ul or 400 ul), and an aqueous solution of substrate (typically 90 ul of butyl-KLG at a typical concentration of 110,000 ppm) were added to a 2 ml polypropylene centrifuge tube. The resulting solution was vortexed briefly and placed on a shaker bath at 300 rpm at 38° C. (typically for 18 hours or more). After incubation, samples were centrifuged at 14,000 G's (14,000 times gravity) for 20 minutes to remove enzyme, sampled (300 ul), and diluted to one milliliter with distilled water. If not analyzed by HPLC within the day, samples were frozen prior to analysis.
The data were reported in terms of parts per million of KLG, MeKLG, ascorbic acid (ASA) and butyl-KLG. […] Samples labeled as "no enzyme" were controls within a given run. The controls contained substrate but no enzyme and thus represented experimental and HPLC background data.

[1] = Table 3: 38° C., 16 Hours, 38% Methanol-Water, 0.1M MES Buffer
[2] = Table 4: 38° C., 47.5 Hours, 38% Methanol-Water, 0.1M MES Buffer
[3] = Table 7: 38° C., 19 Hours, 8.6% Methanol-Water, 0.1M MES
[4] = Table 8: 38° C., 21 Hours, 8.6% Methanol-Water, 0.2 M MES

ASA formed [1] [ppm]	KLG formed [1] [ppm]	MeKLG formed [1] [ppm]	ASA formed [2] [ppm]	KLG formed [2] [ppm]	MeKLG formed [2] [ppm]	ASA formed [3]	KLG formed [3]	MeKLG formed [3]	ASA formed [4] [ppm]	KLG formed [4] [ppm]	MeKLG formed [4] [ppm]	Molecule	BuKLG (remaining substrate) [1] [ppm]	BuKLG (remaining substrate) [2] [ppm]	BuKLG (remaining substrate) [3]	BuKLG (remaining substrate) [4] [ppm]
49	81	316	222	229	613	314	333	291	78	303	320	Porcine Pancreatic Lipase: Porcine Pancreatic Lipase (protein, UniProt P00591 1-450, looked up) Pancreatic triacylglycerol …: SEVCFPRLGCFSDDAPWAGIVQRPLKILPWSPKDVDTRFLLYTNQNQNNYQELVADPSTITNSNFRMDRKTRFIIHGFIDKGEEDWLSNICKNLFKVESVNCICVDWKGGSRTGYTQASQNIRIVGAEVAYFVEVLKSSLGYSPSNVHVIGHSLGSHAAGEAGRRTNGTIERITGLDPAEPCFQGTPELVRLDPSDAKFVDVIHTDAAPIIPNLGFGMSQTVGHLDFFPNGGKQMPGCQKNILSQIVDIDGIWEGTRDFVACNHLRSYKYYADSILNPDGFAGFPCDSYNVFTANKCFPCPSEGCPQMGHYADRFPGKTNGVSQVFYLNTGDASNFARWRYKVSVTLSGKKVTGHILVSLFGNEGNSRQYEIYKGTLQPDNTHSDEFDSDVEVGDLQKVKFIWYNNNVINPTLPRVGASKITVERNDGKVYDFCSQETVREEVLLTLNPC	10709	10899	7888	6860
1	51	99							0	178	0	Rhizoipus Delmar Lipase: Rhizoipus Delmar Lipase (protein, UniProt P61872 96-392, looked up) Lipase: DDNLVGGMTLDLPSDAPPISLSSSTNSASDGGKVVAATTAQIQEFTKYAGIAATAYCRSVVPGNKWDCVQCQKWVPDGKIITTFTSLLSDTNGYVLRSDKQKTIYLVFRGTNSFRSAITDIVFNFSDYKPVKGAKVHAGFLSSYEQVVNDYFPVVQEQLTAHPTYKVIVTGHSLGGAQALLAGMDLYQREPRLSPKNLSIFTVGGPRVGNPTFAYYVESTGIPFQRTVHKRDIVPHVPPQSFGFLHPGVESWIKSGTSNVQICTSEIETKDCSNSIVPFTSILDHLSYFDINEGSCL	7392			7097
6	63	90	42	129	241				10	176	129	Humicola lanuginosa Lipase: Humicola lanuginosa Lipase (protein, UniProt O59952 23-291, looked up) Lipase: EVSQDLFNQFNLFAQYSAAAYCGKNNDAPAGTNITCTGNACPEVEKADATFLYSFEDSGVGDVTGFLALDNTNKLIVLSFRGSRSIENWIGNLNFDLKEINDICSGCRGHDGFTSSWRSVADTLRQKVEDAVREHPDYRVVFTGHSLGGALATVAGADLRGNGYDIDVFSYGAPRVGNRAFAEFLTVQTGGTLYRITHTNDIVPRLPPREFGYSHSSPEYWIKSGTLVPVTRNDIVKIEGIDATGGNNQPNIPDIPAHLWYFGLIGTCL	10191	8017		7215
